The source of these data is patent publication US20210395344A1 (TWIST BIOSCIENCE, published 2021).

Test [1] addresses SARS-CoV-2 S1 RBD (SARS-CoV-2, UniProt P0DTC2 319-541).
Test [2] addresses T1, SARS-CoV-2 Spike Glycoprotein S1 (subunit 1) (SARS-CoV-2, UniProt P0DTC2 16-685).
T1 construct: also called S1 Monomer; SARS-CoV-2 S1
The test can be described thus: ELISA binding titration. (ELISA stands for enzyme-linked immunosorbent assay.)

Test [3] addresses T1, SARS-CoV-2 Spike Glycoprotein S1 …. The test can be described thus: screening phage ELISA, mean.
Test [4] shares this target. As to the kind of experiment: screening phage ELISA, mean. This is another data set of the same source.
For test [5] the target is unchanged. As to the kind of experiment: column Inhibitor IC50 (assay not explained).
In test [6] the target is T2, SARS-CoV-2 S protein trimer (SARS-CoV-2, UniProt P0DTC2 16-1213). The test can be described thus: column DB/S-T (format not explained).
The target in test [7] is T1, SARS-CoV-2 Spike Glycoprotein S1 …. As to the kind of experiment: column Fc/S1 (format not explained).
The target in test [8] is T2, SARS-CoV-2 S protein trimer. As to the kind of experiment: column Fc/S-T (format not explained).
In test [9] the target is T1, SARS-CoV-2 Spike Glycoprotein S1 …. The test can be described thus: column DC/S1 (format not explained); clone 1-27.
Test [10] has the same target. The test can be described thus: antibody kinetics, sensorgrams with fits; column S1.
Test [11] has the same target. The test can be described thus: column DC/S1 (format not explained).
The target in test [12] is T2, SARS-CoV-2 S protein trimer. As to the kind of experiment: column DC/S-T (format not explained).
In test [13] the target is T1, SARS-CoV-2 Spike Glycoprotein S1 ….

Read-outs that look alike come from different tables or passages of the source.

B1: 1-53 (antibody, V domains shown)
VH: EVQLLESGGGLVQPGGSLRLSCAASGFTFSSYTMSWVRQAPGKGLEWVSVISGSGGSTYYADSVKGRFTISRDNSKNTLYLQMNSLRAEDTAVYYCAREGYRDYLWYFDLWGQGTLVTVSS
VL: QSALTQPASVSGSPGQSITISCTGTSTDVGSYNLVSWYQQHPGKAPKLMIYEGTKRPSGVSNRFSGSKSGNTASLTISGLQAEDEADYYCCSYAGSYTSVVFGGGTKLTVL
A word on the IC50: it is the concentration needed to halve the response being measured. Lower therefore signals inhibition by little substance. For orientation: EC50 means the concentration that produces a half-maximal response. Low values mean a more potent agent, high ones a less potent agent. In the case of B1, the IC50 in test [1] turned out to be 0.0143 µM; in [5] it was 1.43 µM. In addition, the concentration for a half-maximal effect (EC50) in test [2] amounted to 0.0103 µM. Further, the “ELISA (Avg)” value in [3] and in test [4] was 21.7 in each case.

B2: 1-2 (antibody, V domains shown)
VH: EVQLLESGGGLVQPGGSLRLSCAASGFTFSSQAMSWVRQAPGKGLEWVSAISGSGGGTYYADSVKGRFTISRDNSKNTLYLQMNSLRAEDTAVYYCAKDRRFGEFDPWGQGTLVTVSS
VL: QSALTQPASVSGSPGQSITISCTGTSSGVGSYNLVSWYQQHPGKAPKLMIYEGIKRPSGVSNRFSGSKSGNTASLTISGLQAEDEADYYCCSYAGSSSFVVFGGGTKLTVL
The Kd is the concentration at which binding is half-saturated. Higher therefore signals weaker binding. Turning to B2, the half-maximal effective concentration (EC50) in test [2] was determined as 0.000523 µM. Also, the “ELISA (Avg)” value in [3] and in [4] was 24.2 throughout. In test [6], this molecule had a Kd of 0.304 µM.

B3: 1-27 (antibody, V domains shown)
VH: EVQLLESGGGLVQPGGSLRLSCAASGFTFSSYAMTWVRQAPGKGLEWVSAISGSGGGTYYADSVKGRFTISRDNSKNTLYLQMNSLRAEDTAVYYCASSSSWQFDYWGQGTLVTVSS
VL: QSALTQPASVSGSPGQSITISCTGTSSYVGHYNLVSWYQQHPGKAPKLMIYEGSRRPSGVSNRFSGSKSGNTASLTISGLQAEDEADYYCCSYAGSYTHYVFGGGTKLTVL
B3: it took 0.000148 µM to reach a half-maximal effect in [2] (EC50). For the same molecule, the “ELISA (Avg)” value in [3] and in test [4] was 27.2 in each case. The figures for the equilibrium dissociation constant (Kd) in [7], in test [8] and in [9] were 0.0096 µM, 0.0096 µM and 5.52 µM, respectively.

B4: 1-12 (antibody, V domains shown)
VH: EVQLLESGGGLVQPGGSLRLSCAASGITFSSYAMSWVRQAPGKGLEWVSGISGSGGSTYYADSVKGRFTISRDNSKNTLYLQMNSLRAEDTAVYYCAKHGSGTIFGVVIAKYYFDYWGQGTLVTVSS
VL: QSALTQPASVSGSPGQSITISCTGTSSDVGHYNLVSWYQQHPGKAPKLMIYEGTKRPSGVSNRFSGSKSGNTASLTISGLQAEDEADYYCCSYAGSSSFVVFGGGTKLTVL
As for B4, the EC50 in [2] worked out at 0.00215 µM. Moreover, the “ELISA (Avg)” value in test [3] and in test [4] was 25.7 each time. The equilibrium dissociation constant (Kd) in test [7] worked out at 0.0061 µM; in test [8], 0.014 µM; in test [10] it was 0.0061 µM. The same molecule came in with an IC50 in test [5] of 0.033 µM.

B5: 1-33 (antibody, V domains shown)
VH: EVQLLESGGGLVQPGGSLRLSCAASGFTFSSYAMIWVRQAPGKGLEWVSAISGSGGSTFYADSVKGRFTISRDNSKNTLYLQMNSLRAEDTAVYYCTRPPYGDYGDYWGQGTLVTVSS
VL: QSALTQPASVSGSPGQSITISCTGTSSDVGSYNLLSWYQQHPGKAPKLMIYEASKRPSGVSNRFSGSKSGNTASLTISGLQAEDEADYYCCSYAGSRTPVVFGGGTKLTVL
In [2], B5 returned a concentration giving a half-maximal response (EC50) of 0.0175 µM. Further, the “ELISA (Avg)” value in test [3] and in test [4] was 17.6 in each case. Further, the dissociation constant (Kd) turned out to be 0.0081 µM in test [11] and 1740 µM in [12].

B6: 1-42 (antibody, V domains shown)
VH: EVQLLESGGGLVQPGGSLRLSCAASGVTFSSYAMSWVRQAPGKGLEWVSAITGSGGSTYYADSVKGRFTISRDNSKNTLYLQMNSLRAEDTAVYYCAKHGSGTIFGVVIAKYYFDYWGQGTLVTVSS
VL: QSALTQPASVSGSPGQSITISCTGTSSDVGRYNLVSWYQQHPGKAPKLMIYEGGKRPSGVSNRFSGSKSGNTASLTISGLQAEDEADYYCCSYASSSTLVFGGGTKLTVL
On to B6, for which a half-maximal response in test [2] (EC50) required 0.00792 µM. The affinity in test [10], expressed as Kd, was 0.364 µM.

B7: 1-17 (antibody, V domains shown)
VH: EVQLLESGGGLVQPGGSLRLSCAASGFTFSSYAMYWVRQAPGKGLEWVSAISGSAGSTYYADSVKGRFTISRDNSKNTLYLQMNSLRAEDTAVYYCARDTNDFWSGYSIFDPWGQGTLVTVSS
VL: QSALTQPASVSGSPGQSITISCTGTSSDIGSYNLVSWYQQHPGKAPKLMIYEGTKRPSGVSNRFSGSKSGNTASLTISGLQAEDEADYYCCSYAGSRTYVFGGGTKLTVL
Regarding B7, the “ELISA (Avg)” value in test [3] and in [4] was 27.4 each time. Further, the Kd came out at 6.65 µM in test [11] and 0.01 µM in test [8].

B8: 1-29 (antibody, V domains shown)
VH: EVQLLESGGGLVQPGGSLRLSCAASGFTFSSYAMYWVRQAPGKGLEWVSAISGSAGSTYYADSVKGRFTISRDNSKNTLYLQMNSLRAEDTAVYYCARDTNDFWSGYSIFDPWGQGTLVTVSS
VL: QSALTQPASVSGSPGQSITISCTGTSSDIGSYNLVSWYQQHPGKAPKLMIYEGTKRPSGVSNRFSGSKSGNTASLTISGLQAEDEADYYCCSYAGSRTYVFGGGTKLTVL
Take B8: the “ELISA (Avg)” value in [3] and in test [4] was 23.8 in each case. Moreover, the figures for the Kd in test [6] and in test [8] were 0.0361 µM and 0.0193 µM, respectively.

B9: 1-32 (antibody, V domains shown)
VH: EVQLLESGGGLVQPGGSLRLSCAASGFTFSSYAMYWVRQAPGKGLEWVSAISGSGGSTFYADSVKGRFTISRDNSKNTLYLQMNSLRAEDTAVYYCTRPPYGDYGDYWGQGTLVTVSS
VL: QSALTQPASVSGSPGQSITISCTGTSSDVGGYNLVSWYQQHPGKAPKLMIYEGNKRPSGVSNRFSGSKSGNTASLTISGLQAEDEADYYCCSYAGSSTFPVVFGGGTKLTVL
In test [13], B9 returned an IC50 of 0.0322 µM. Also, the “ELISA (Avg)” value in test [3] and in [4] was 17.9 throughout. Further, the Kd worked out at 0.0148 µM in test [11] and 2.98 µM in [7].
